# Experimental data: patent US7785829 (Biogen, dated 2010)
# T1: human NgR1 receptor expressed on COS7 cells (human, UniProt Q9BZR6 27-447)
# T1 construct: whole, on cells; also called Nogo receptor-1; nogo receptor-1
# T1 sequence (looked up): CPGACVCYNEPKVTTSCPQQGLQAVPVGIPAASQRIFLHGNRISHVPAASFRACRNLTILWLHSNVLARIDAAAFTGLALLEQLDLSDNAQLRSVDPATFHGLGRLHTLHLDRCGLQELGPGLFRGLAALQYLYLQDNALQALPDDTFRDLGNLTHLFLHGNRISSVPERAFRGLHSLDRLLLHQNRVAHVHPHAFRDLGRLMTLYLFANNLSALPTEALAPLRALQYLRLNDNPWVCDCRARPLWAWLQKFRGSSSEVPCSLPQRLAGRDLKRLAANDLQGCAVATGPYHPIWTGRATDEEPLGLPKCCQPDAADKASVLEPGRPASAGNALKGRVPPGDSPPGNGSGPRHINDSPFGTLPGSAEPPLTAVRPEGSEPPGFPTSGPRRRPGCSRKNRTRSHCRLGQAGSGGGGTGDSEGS
# B1: sNgR344-Fc (rat NgR1 peptide 35-344 fused to the rat IgG1) (Fc fusion, UniProt Q99M75 35-344, looked up, not shown: a dimerising Fc or GST)
# chain: NEPKVTTSCPQQGLQAVPTGIPASSQRIFLHGNRISYVPAASFQSCRNLTILWLHSNALAGIDAAAFTGLTLLEQLDLSDNAQLRVVDPTTFRGLGHLHTLHLDRCGLQELGPGLFRGLAALQYLYLQDNNLQALPDNTFRDLGNLTHLFLHGNRIPSVPEHAFRGLHSLDRLLLHQNHVARVHPHAFRDLGRLMTLYLFANNLSMLPAEVLVPLRSLQYLRLNDNPWVCDCRARPLWAWLQKFRGSSSEVPCNLPQRLAGRDLKRLAASDLEGCAVASGPFRPFQTNQLTDEELLGLPKCCQPDAADKA
# B2: His-AP-Sp35 (34-532) with amino acid 456 mutated from arginine to glutamic acid and amino acid 458 from histidine to valine (other)
# chain: TGCPPRCECSAQDRAVLCHRKRFVAVPEGIPTETRLLDLGKNRIKTLNQDEFASFPHLEELELNENIVSAVEPGAFNNLFNLRTLGLRSNRLKLIPLGVFTGLSNLTKLDISENKIVILLDYMFQDLYNLKSLEVGDNDLVYISHRAFSGLNSLEQLTLEKCNLTSIPTEALSHLHGLIVLRLRHLNINAIRDYSFKRLYRLKVLEISHWPYLDTMTPNCLYGLNLTSLSITHCNLTAVPYLAVRHLVYLRFLNLSYNPISTIEGSMLHELLRLQEIQLVGGQLAVVEPYAFRGLNYLRVLNVSGNQLTTLEESVFHSVGNLETLILDSNPLACDCRLLWVFRRRWRLNFNRQQPTCATPEFVQGKEFKDFPDVLLPNYFTCRRARIRDRKAQQVFVDEGHTVQFVCRADGDPPPAILWLSPEKVLVSAKSNGRLTVFPDGTLEVRYAQVQDNGTYLCIAANAGGNDSMPAHLHVRSYSPDWPHQPNKTFAFISNQPGE
# notes: also called Sp35 construct in which residues R at 456 and H at 458 were changed into E and V; not shown: N-terminal His tag and alkaline phosphatase (AP) reporter of the His-AP vector, with any junction residues
# B3: His-AP-Sp35 fusion protein (His-tagged alkaline phosphatase fused to the extracellular domain of Sp35, a.a. 34-532) (other, human)
# chain: IIPVEEENPDFWNREAAEALGAAKKLQPAQTAAKNLIIFLGDGMGVSTVTAARILKGQKKDKLGPEIPLAMDRFPYVALSKTYNVDKHVPDSGATATAYLCGVKGNFQTIGLSAAARFNQCNTTRGNEVISVMNRAKKAGKSVGVVTTTRVQHASPAGTYAHTVNRNWYSDADVPASARQEGCQDIATQLISNMDIDVILGGGRKYMFRMGTPDPEYPDDYSQGGTRLDGKNLVQEWLAKRQGARYVWNRTELMQASLDPSVTHLMGLFEPGDMKYEIHRDSTLDPSLMEMTEAALRLLSRNPRGFFLFVEGGRIDHGHHESRAYRALTETIMFDDAIERAGQLTSEEDTLSLVTADHSHVFSFGGYPLRGSSIFGLAPGKARDRKAYTVLLYGNGPGYVLKDGARPDVTESESGSPEYRQQSAVPLDEETHAGEDVAVFARGPQAHLVHGVQEQTFIAHVMAFAACLEPYTACDLAPPAGTTDAAHPGTGCPPRCECSAQDRAVLCHRKRFVAVPEGIPTETRLLDLGKNRIKTLNQDEFASFPHLEELELNENIVSAVEPGAFNNLFNLRTLGLRSNRLKLIPLGVFTGLSNLTKLDISENKIVILLDYMFQDLYNLKSLEVGDNDLVYISHRAFSGLNSLEQLTLEKCNLTSIPTEALSHLHGLIVLRLRHLNINAIRDYSFKRLYRLKVLEISHWPYLDTMTPNCLYGLNLTSLSITHCNLTAVPYLAVRHLVYLRFLNLSYNPISTIEGSMLHELLRLQEIQLVGGQLAVVEPYAFRGLNYLRVLNVSGNQLTTLEESVFHSVGNLETLILDSNPLACDCRLLWVFRRRWRLNFNRQQPTCATPEFVQGKEFKDFPDVLLPNYFTCRRARIRDRKAQQVFVDEGHTVQFVCRADGDPPPAILWLSPRKHLVSAKSNGRLTVFPDGTLEVRYAQVQDNGTYLCIAANAGGNDSMPAHLHVRSYSPDWPHQPNKTFAFISNQPGE
# notes: Order His-AP-Sp35 as in the name; also called alkaline phosphatase-Sp35 conjugate; His-AP-Sp35 (34-532); not shown: His tag
# Assays:
# [1] = target: His-AP-Sp35 fusion protein (His-tagged alkaline phosphatase fused to the extracellular domain of Sp35, a.a. 34-532) (human) (UniProt P05187); assay: competition ELISA; AP-Sp35 pre-incubated with 100-fold excess of soluble sNgR344-Fc, immobilized sNgR344-Fc
# [2] = target: T1, human NgR1 receptor expressed on COS7 …; assay: mutant AP-Sp35 construct tested for NgR1 binding
# [3] = target: T1, human NgR1 receptor expressed on COS7 …; assay: AP-Sp35 titration on NgR1-transfected COS7 cells, AP activity with 4-nitrophenyl phosphate
binder,measurement,setting,value
B1,percent competition of binding,[1],80%
B2,fold drop in signal (against the unmutated construct),[2],> 10 fold
B3,EC50,[3],~6 nM
